Test: soluble on expression in E. coli; label from the status in PepcDB or PDB records

Row | Sequence | soluble on expression in E. coli
1 | SLIYFFMVDAVELSRKYEGKIEIYPKVPITSYNDFALIYTPGVAEVSKAIYKDPDKSFELTSRWNTIAVVTDGTRVLGLGNIGPTAAMPVMEGKSLLFKYLGGVDAIPLPINVKSADEFTNVVKALETSFGGINLEDIESPKCFYILEKLQSMLNIPVWHDDQQGTAAAILAGLINAMILTNKDPKESKVVFYGAGASNIAAARILAKYGFKYENIVMIDSKGPLYADREDVDHLMLHHKWKYELAIKTNKWEAKEIKDAFSGADAVVAASTPGPNVIKKEWISLMNKEAIVFALANPVPEIWPQDAKEAGAKIVATGRSDFPNQVNNSLIFPAIFRGVLDSRAKAITDEMTIAASEALAKYARDRGINENYIIPRMDEWEAFYEEAAAVASKAVELGLARVKKSREEFREIAKERIIRARKIMNLVISTWSPEG | soluble
2 | MKKILLSLLALGCFSAANAQTFRFGPTVGGNLNISDETKTKIGFAVGAKAEMNFNNPENGWFMDASVLFNNRNRQSENYFNNETKLTQCWKYSTYSLLVPVNVGYKFRLSDNLNLLAAVGPYADFGLTGTDKVTTTDAKGHSKEEKMSSNVYGDKLFNRVNFGFDAKVGVEIAKHYQLSLSYSRGFTNIFKGGLNTKAQDLQLGFSYMF | not soluble
3 | GPGSMNQLVVFLDIDNTLYSGEEYHSLAEQIRDGLVEYVGNWLQLTPQESEAYVVHCFEKYGLTIAGLMHEQKGFDAEAATDFLYSHCDFSHLQENPRLREMLSRLRRNHHLYFFTNASRRHATTVLQALGLSSDEFRMSGFTYEDQWAQTAPVPCNKPMRNAYIAVIKVLKKWLQDAEWVTAECMVMVDDSACNLIEPLALGLNAVWVSHGHPISDVLAEKMNTGRLFCITDIIELEDIIKQITINREN | soluble
4 | MAHHHHHHMAAYVGSVPPATLTTLAQREVELSLLQFLRQYHPKVDELWRTHPDAEPMETAEEMCMDASDDCKSDHLPRLHRELHDSYVQGRFLFLGESTQGLYSSQPWLAFWALQAADMLDITEKLYEHVSPDALGNFILGCLQEVKKSGTSNDDDMRNNPMDMDEQQESVLLRNPVSIFDDDNDDGKRLVGFAGGQLAQIPHLAASYAALCSLCILPRTTYLRALPRAAIKRWLLSLRCKDGSFCMHTGGEADIRASYCVAVMTVLLQLNDVPAYTDGRDDTVLTEQTAAFVASCQTHEGGFACGLNASEAHGAYTQCGLAALILMRYPHLCKYAALRRWLSARQLKFEGGFNGRTNKLVDSCYSYWVGASHMLLRVGESYMRLLGQTETPRCLTAREALLLDHAQLIDTTSMCPMDDDAWRHAEEIHRQRTAHVEAYLHAPSHSTWKQQTATQSFLDEDVGDFYFNQRRLLLYVLSCCQDKEMGGLMDKPGCLNDAYHTCYSLSGMSTAQNLQYLPRSCTNETLMYATALRRGYIPNERDDYEIVLAVHNSNRGVGCGCYRSQERLSPLNPIFNICQSRVLAALRTWGVKSFIC | soluble
5 | MGSDKIHHHHHHMNIQDLRYFHELVNLKSYTKTAEKFGVSQPTITAAVKRLENRFGGTFLIRDQPHKSIIITRLGVQFDEHVQSILNEINIVEEEIKQNQNASIPFGLPPIIGRNYFPKIVSQLFAKGLLHRLNVIENGSYDLYHLLLEGYINFSMLGLTKVNVEPGIKLEVVKSYPMCIVVSKTHPLATKKAISFKEIANENFIGLSSDYIHTKALDRMLKKSKINLNTIYRSPDVTVVKNIVAQNLGISYLTTLSITENDDVISIPLLDKDQPKFILAAATRENHIMTDAEEEFWEILTQISLRRQVLTSTLPS | not soluble
6 | MDLFQAMRVYVKVVEAGSLTAAAQACSISTTMVGNHLRALEQRLGVSLLQRTTRRQRLTEFGTAYYERCLEVLGLVAESEQLAEQAQGDPSGTLRITAPLTFGSEVLAPALAGFSLRFPEVKLDLVLTNQRLDMIDNGFDIAIRLGNIPQSSPLIARLMQDYTLTICAAPSYLARHGTPAHPEDLGAHNCLAFSYPAGDEWRTAGTQWRMTGPEGEVLVDVDGSMVANTSAGLYQAACAGMGVVMLPDALVQRDLQEGRLVALLPGYHLPRRPMNLLYVQDRYRLPKVRSFVEYAMGLWGR | not soluble
7 | KTVINVVLQEDTQILDEVVVTALGLKREQKALGYAVTEVKGDDLKAANTISPVAALQGKVAGVEIRQSDGGMFGATKIQIRGASTLKGNNQPIYVIDGVILDNSTSGNTTMDWDAGNNNANDYGNELKNLNPDDFETVSVLKGAAATALYGSRGLNGAVVITTKSGKG | not soluble
8 | MKYQVKQVAEISGVSIRTLHHYDNIELLNPSALTDAGYRLYSDADLERLQQILFFKEIGFRLDEIKEMLDHPNFDRKAALQSQKEILMKKKQRMDEMIQTIDRTLLSVD | soluble
9 | MRFEEEIGSLQMLCDQFQNKINTLEKQMNEEKKDYVQKLHRLHEKNGEAIDKMKQLDHTMQAVSTKVVHLGDQLESVDQPRSRAHDAHQLMQHFDEFLSDQPLNSMIFTDPDKLLESADLVHKLYSISQELNKDKFANVQARIGQRYKVVEDLLIEEFVRSQRDEKKMAEVAKILSEFKGYSGCVDRYVDFLCQSIHPRGDGGEILADCLQLCRTQQPRISAIFPSPHTVMQKLVLNIFTGRMKETITARLRECKDTDDQEHYLRDLAYLYSSTLKMCKELEKLHISPDSAFLSTLTDSIFQRYIATYCSEELKYLNDQCSNLLQRFYESKKHVKKQIGGGLHELKRDVAARLMNVETYGGETFVAEDVAISILQETKNAFGRANQLCDKEELPRHVENIVDVLLKYLYGEHLDYAVETGLAGISLAESKTEPPAYFFSVVAKCTSVILLMIKQFEDPIFPIIKETIVEPSVAKKWQQSLRSLESKMSLGLERQLNSIVGYVKFLFSEQKKTDFRPDSQQIDIRVSPQCQLASRFLANQVAAMELGCDGENLEALQSDLATRLFKFMLTHIQQFTYNSTGAVLLLCDVGELRTLVSKWRVQNALTQWESLQALTNLLAVLPDQVNETAHSSLLENVDRQLIHDFVRLRTDFRSIKNFQI | not soluble
10 | MGSDKIHHHHHHMHVGRENSSFQICNSSQDIRKSDILDAMSIRFRQLQAFHATFETGTVTGAATLLGISQPGISNLLAQLERETRFKLFERVKGRLIPTPEAGVLYQEVDTVVRGLDHVGQAVTDLQNKQGGQLQVASQHAMSFGFMPKLIAQFAKTRPDMSISFQSQYSSKVQEWVMSGLFEIGVCETPQLYDALDTHPFQVEMQLTLHPDNPLARHDILTPELCGAEPFIVMGPDHMTHRRTREAFHTAGVPWNTRVHTHLFKNMLSFVQEDMGVAILDPFLLDHDESGSFVTRPFAPAIHMDMMVITSATRPLSTLALDFLDLLLTGIAQSDRRRVSPSNAAPGRPPLPMAAR | not soluble
11 | MADGPDKKRRKLTSALKDAIGAHSQKPEENIEKPIALALISDNKAAQDLLNKIQASRRPQAILEATLKICKEKKSEAHVDEAFLSIFRKHFSILGVDSALACWKLIEEHLNSSESINEIRIANEFISTSNLLGHGFGKLLQNMKQGIPVVIQNTWRQERKADALALAYPFLSLLLADQVYGDHQNLESLAEFWKNQVLPEKSMKKDFGMRMVSALAGGEPGQLPETKIDENQLEMLSKIYENHLEFYTGILSESTCSQLLAKVIEDNLAKNELKQLARRCQTAEVCMSPCIYYAMISVLRSTFDLNDSELIFIENLKTLKLKEITKHLPSIINSCSNTRQITASKKLKNLENLQDFLHNVTEKPENDNFSAAFALLSINISLIFDNWNFCEKILKTLPKDVLEKLIKAGKGSENENILKVFKKVAQEAAPVKFVNRTAADVAEKLREPEFAVAEALSLLQGVHTAETKKEVFDSVVKFVEEIPGAESIDEMKLFKLIIEMYGGSQLESLAVQVVFSRIAADGWTEMDRAPGTEKSDESWFTVLVETIDLLDIAMKSAKNSVLKSFTALFCQLFSQVLKNSQKFVRNSLNAVASRTLSPEMETEFVLRRHKLSQDLARLVDAMKRNESYFAMLTASIIGDAVFYGSDSLLAMSKLHSLADKNASALLATNLPVVERTRYKKFLSTITRASKRIY | not soluble
12 | SLPSVLDTLAAHSDNPSSFLALNSGNAYFHDGGFDGACAYRTSGRYVLQFGGPFTAPEHRARLLDAFAAHAGRRLVAVQLQRADAELYAAHGFTVNQLGASYAVDLSRFTLRGSRFVRLRNKISRARRAGLEVAEVMAGDDCAELDRIDQCWLRDKGRHVKELRFLVGQRNGSLQRHRRLFVGRIDGETAGYINYSPVYGSRSGWLHDLSRRRPDAPPGVMEALNATVMERLTAEGAGWLHFGFTPFTGLDPEHELPGASRMFTRFARLLAERGDVIYPAASQLEYKQKWAPHVVLPEYIAFRGRPRPGAVWQLLRATNAL | soluble
13 | MDQLREIVDPDQPQTLRQQAEGWGKMAELLREYSLLLDERLRLVEHSWTGEAATMYFDEVRRVQEYIEDSAERATANCGLWCVIATMAGIAKHDVSHIHQLWKDLDAATDAVGLGFVAGVFGADEALEDFQRKPFDAASRQIMEVTMSAADESYARMRDFEEFEPPPSVDDSGLELQSVSTPAPPSGTAVAPPSTTVTATPAVPLGPTAPRPVVPSVIGSRPGMMPMARPMMGPGHTVPPVIGQRDGGSAQPGATGRLIGRDGVVRVTPDVDLRDPNASRAHYGGDDVNRGVIKSQNPQRVADEAQFKLEEEVRRLRERAYAHRVETLTADHSQYAIPGIVGDDSAWDTKAHDPGPVAFDVRRLRHRPVVDDWTLAVRRH | not soluble
14 | MSLAYIYLMRHAKTVMNIEGRWQGINDSDIPEESLRHFEERIRFLAGKNIKAIYSSCLVRSIKSATVAASILGIDHIETVRGFNERDLGLMEGKTNDEIREKFGITDIYIASRAIESIPMVEPWPKFVGRVMATLQAFSGRDGSLVITHGGVMRAIYNTLTGSNERRVIFDNGYILKLEFSGSWRISEIIGQEGHHHHHH | soluble
15 | TSTDAAGGDSYRVGINQLVQHPALDAATTGFKEAFEEAGVDVTFDEQNANGEQGTALTISQQFASDNLDLVLAVATPAAQATAQNITDIPVLFTAVTDAVSAELVDSNEAPGGNVTGTSDIAPIEQQLELLQQLVPDAKSIGIVYASGEVNSQVQVDEVTKAAEPLGLSVNTQTVTTVNEIQQAVEALGDVDVIYVPTDNMVVSGISSLVQVAEQKQIPVIGAESGTVEGGALATLGIDYTELGRQTGEMALRILQDGEDPATMPVETATEFTYVINEDAAERQGVEIPQEILDKAERV | not soluble
16 | MGSDKIHHHHHHMRNTAVAEQPASVPAMSRLTRQRLHDTVVEYLRDYIVKGVLAPGVKLNERELCETLGISRTPLREAIKVLAAEGLIEISANRGAAVTKLAESEIDEMFELMSGLEAFAGELACERITPHEIAEIKALHYAMVACREREDLSGYYGYNQQIHDRINGAARNCALRQTYLSINRRLQAMRFKSNFHKSKRDHAVHDHEEMIKALESRDGKRLSAILRQHLLDKRDVVLVTLATARETPATGGR | not soluble
17 | MNECAFGTKDPVYLNYHDHVWGQPLYDSKALFKLLALESQHAGLSWLTILKKKEAYEEAFYDFEPEKVAQMTAQDIDRLMTFPNIVHHRKKLEAIVNQAQGYLKIEQAYGSFSKFLWSYVNGKPKDLQYEHASDRITVDDTATQLSKDLKQYGFKFLGPVTVFSFLEAAGLYDAHLKDCPSKPKHN | soluble
18 | GPGSMAVGASSRTAQRTPARERRQIIPPDVSGQFRVTTFLSLDAFALQHFTLDDHSATGKEGRMFRAFGVTTWAPRIWDEGVSGVFLDLRGAYNYWKRADDQAQLVFDSLVAWIGALEAERDPTDRFMNLGRILLQAFRMQLMMASDPGIPVFNILARPCTAVHEADTFARTIQIPLERRGTQISLRCQLCHVTCP | not soluble
19 | MNNVLLEVKDLETSLKINNEWLATVENISFELSKGEVLGIVGESGCGKSILSKSIIKLLPEKISKLSNGEVIFDGKRIDTLNEKQLLDIRGNDIAMIFQEPMTALNPVFTIKNQLVESIKSHKKISKKEANKLAKDLLKKVGIARQDEILNSYPHQLSGGMRQRVMIAMAISCSPKLLIADEPTTALDVTIQAQILDLLKELQKETQMAIMMITHDLSVVAEFCDKVLVMYAGQIVEFGGIKEILHNPKHPYTQKLLSTIPKLKEEQKRLETIEGIVPSIQAFHVNKCRFANRCNKKLDICNNQSPKMHVCEDVIVRCHLYKNEYKEI | not soluble
